This test addresses human CRM1 (HsCRM1), wild type (human) (UniProt O14980). As to the kind of experiment: differential bleaching; competition titration of MBP-NES to FITC-PKI NES and CRM1 with excess RanGTP; triplicate; fitted with a set of direct titrations.

pKd: −log10 of the molar value.

human CRM1 (HsCRM1), wild type (human), sequence (O14980 whole entry): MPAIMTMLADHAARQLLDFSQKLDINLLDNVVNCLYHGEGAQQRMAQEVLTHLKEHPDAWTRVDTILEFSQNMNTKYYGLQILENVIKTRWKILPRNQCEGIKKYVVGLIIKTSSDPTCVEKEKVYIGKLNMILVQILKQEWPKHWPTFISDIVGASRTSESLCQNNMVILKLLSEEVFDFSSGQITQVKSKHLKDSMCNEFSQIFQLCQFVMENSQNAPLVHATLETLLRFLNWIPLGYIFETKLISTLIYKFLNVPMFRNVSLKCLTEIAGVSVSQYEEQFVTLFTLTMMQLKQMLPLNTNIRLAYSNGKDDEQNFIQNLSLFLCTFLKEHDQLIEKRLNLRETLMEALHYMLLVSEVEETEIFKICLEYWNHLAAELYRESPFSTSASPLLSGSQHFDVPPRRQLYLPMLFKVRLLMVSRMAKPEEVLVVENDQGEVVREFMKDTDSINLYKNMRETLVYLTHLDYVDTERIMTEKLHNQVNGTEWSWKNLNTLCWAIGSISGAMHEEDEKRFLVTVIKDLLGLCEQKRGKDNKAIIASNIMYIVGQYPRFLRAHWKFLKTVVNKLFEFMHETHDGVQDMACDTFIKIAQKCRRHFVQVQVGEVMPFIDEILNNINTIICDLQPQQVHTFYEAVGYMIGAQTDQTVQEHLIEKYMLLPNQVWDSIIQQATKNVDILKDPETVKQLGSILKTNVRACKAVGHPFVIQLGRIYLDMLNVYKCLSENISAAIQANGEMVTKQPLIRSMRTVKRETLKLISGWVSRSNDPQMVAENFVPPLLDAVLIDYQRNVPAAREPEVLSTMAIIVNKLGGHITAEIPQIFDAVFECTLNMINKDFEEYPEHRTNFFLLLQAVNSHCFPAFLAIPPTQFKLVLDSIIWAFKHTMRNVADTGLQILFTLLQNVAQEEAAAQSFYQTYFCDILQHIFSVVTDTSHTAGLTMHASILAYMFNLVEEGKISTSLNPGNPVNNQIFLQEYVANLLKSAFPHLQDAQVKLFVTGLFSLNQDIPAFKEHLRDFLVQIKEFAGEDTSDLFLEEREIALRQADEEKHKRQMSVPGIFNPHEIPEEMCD

As to MBP-mDia2 NES(Φ0A) mutant (peptide), the pKd (commonly the Kd on a negative log10 scale, so that one unit is a factor of ten) is 5.04.

Source of the values: article PMC5358978, “Nuclear export receptor CRM1 recognizes diverse conformations in nuclear export signals” (eLife, 2017).
